Data: publication doi:10.1101/302299

B1: GCC11 (crystal) (dsDNA)
DNA 1: TAGCCGCCAGC
DNA 2: GCTGGCGGCTA
B2: GCC11 probe (dsDNA)
DNA 1: TAGCCGCCAGC
DNA 2: GCTGGCGGCTA

Legend:
AtERF96 WT [1] = target: T1, AtERF96 WT (Arabidopsis thaliana, UniProt Q9LSX0 1-131); experiment: X-ray crystallography
AtERF96 WT [2] = target: T1, AtERF96 WT; experiment: EMSA

T1 sequence (Q9LSX0 whole entry): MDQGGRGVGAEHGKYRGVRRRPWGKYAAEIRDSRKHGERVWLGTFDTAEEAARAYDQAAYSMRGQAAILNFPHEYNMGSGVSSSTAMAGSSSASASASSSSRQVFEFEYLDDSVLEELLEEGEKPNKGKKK

Row | Binder | binding result (AtERF96 WT [1]) | binding result (AtERF96 WT [2])
1 | B1 | binds | 
2 | B2 |  | binds
